# Data from article PMC10404681, “Intrinsic catalytic properties of histone H3 lysine-9 methyltransferases preserve monomethylation levels under low S-adenosylmethionine” (The Journal of Biological Chemistry, 2023).
# *: point of attachment. 5FAM = O=C1OC2(c3ccc(O)cc3Oc3cc(O)ccc32)c2ccc(C(=O)*)cc21
# T1: SUV39H1, full length with N-terminal maltose-binding protein (UniProt O43463 1-412)
# T1 construct: SUV39H1 (KMT1A), full length; Plasmid generated for this study; The His tag is surmised from the nickel column purification; also called KMT1A; source: Rosetta E. coli, purified (HisTrap FF nickel column, dialysis)
# T1 sequence (looked up): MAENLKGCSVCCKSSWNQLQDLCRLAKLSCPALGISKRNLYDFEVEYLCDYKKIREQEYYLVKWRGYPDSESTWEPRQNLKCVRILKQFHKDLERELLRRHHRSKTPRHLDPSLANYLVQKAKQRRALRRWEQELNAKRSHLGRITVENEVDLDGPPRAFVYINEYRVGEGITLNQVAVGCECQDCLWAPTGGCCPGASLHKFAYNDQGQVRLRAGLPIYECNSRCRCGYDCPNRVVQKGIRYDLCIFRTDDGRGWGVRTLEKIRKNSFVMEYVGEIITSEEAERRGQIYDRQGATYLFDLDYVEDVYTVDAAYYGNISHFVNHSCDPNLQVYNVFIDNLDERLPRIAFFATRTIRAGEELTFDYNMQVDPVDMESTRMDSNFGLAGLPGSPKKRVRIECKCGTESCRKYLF
# T2: H. sapiens EHMT1 catalytic subunit (amino acids 982 to 1266) (H. sapiens, UniProt Q9H9B1 982-1266)
# T2 construct: EHMT1 (G9a-like protein, KMT1D), human, catalytic subunit, amino acids 982 to 1266; UniProt entry Q9H9B1 is printed for human EHMT1; Plasmid from Addgene (gift of Cheryl Arrowsmith); The tag is surmised from the nickel column purification; also called G9a-like protein; GLP; source: Rosetta E. coli, purified (HisTrap FF nickel column, dialysis)
# T2 sequence (looked up): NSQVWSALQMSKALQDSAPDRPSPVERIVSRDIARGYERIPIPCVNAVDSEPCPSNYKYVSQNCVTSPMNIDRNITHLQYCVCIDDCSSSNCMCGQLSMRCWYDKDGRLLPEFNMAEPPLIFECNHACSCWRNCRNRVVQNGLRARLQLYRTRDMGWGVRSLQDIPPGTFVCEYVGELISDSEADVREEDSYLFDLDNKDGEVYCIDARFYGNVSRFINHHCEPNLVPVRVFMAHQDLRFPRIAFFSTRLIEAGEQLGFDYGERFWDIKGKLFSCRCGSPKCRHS
# T3: H. sapiens EHMT2 catalytic subunit (amino acids 913 to 1193) (H. sapiens, UniProt Q96KQ7 913-1193)
# T3 construct: EHMT2 (G9a, KMT1C), human, catalytic subunit, amino acids 913 to 1193; Plasmid provided by the laboratory of Peter W. Lewis; The tag is surmised from the nickel column purification; also called G9a; KMT1C; source: Rosetta E. coli, purified (HisTrap FF nickel column, dialysis)
# T3 sequence (looked up): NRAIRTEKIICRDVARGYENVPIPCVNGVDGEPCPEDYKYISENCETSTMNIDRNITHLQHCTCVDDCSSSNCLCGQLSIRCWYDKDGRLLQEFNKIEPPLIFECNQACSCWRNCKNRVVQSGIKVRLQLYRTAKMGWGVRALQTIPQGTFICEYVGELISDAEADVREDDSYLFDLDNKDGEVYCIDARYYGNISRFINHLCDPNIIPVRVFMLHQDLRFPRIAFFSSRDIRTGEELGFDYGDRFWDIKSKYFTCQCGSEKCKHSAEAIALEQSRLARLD
# B1: H3(1-17) K9 monomethylated peptide, N-terminus 5-FAM labeled (peptide, UniProt P68431 2-18, looked up)
# peptide: ARTKQTARKSTGGKAPR
# modifications: 5-Carboxyfluorescein (5-FAM) on the N-terminus; monomethyl-lysine at 9
# notes: Histone H3, residues 1-17, lysine 9 monomethylated; Made on Rink-amide resin, so the C-terminus is probably an amide (surmised); also called H3K9me1; source: synthetic peptide (solid phase synthesis on Rink-amide ChemMatrix resin, C18-HPLC-purified)
# B2: H3(1-17) K9 unmodified peptide, N-terminus 5-FAM labeled (peptide, UniProt P68431 2-18, looked up)
# peptide: 5FAM-ARTKQTARKSTGGKAPR-NH2
# notes: Histone H3, residues 1-17, lysine 9 unmodified; Made on Rink-amide resin, so the C-terminus is probably an amide (surmised); Residues 1-17 are the same in H3.1, H3.2 and H3.3; also called H3K9un; source: synthetic peptide (solid phase synthesis on Rink-amide ChemMatrix resin, C18-HPLC-purified)
# B3: H3(1-17) K9 dimethylated peptide, N-terminus 5-FAM labeled (peptide, UniProt P68431 2-18, looked up)
# peptide: ARTKQTARKSTGGKAPR
# modifications: 5-Carboxyfluorescein (5-FAM) on the N-terminus; dimethyl-lysine at 9
# notes: Histone H3, residues 1-17, lysine 9 dimethylated; Made on Rink-amide resin, so the C-terminus is probably an amide (surmised); also called H3K9me2; source: synthetic peptide (solid phase synthesis on Rink-amide ChemMatrix resin, C18-HPLC-purified)
# Target: T4, H. sapiens SUV39H2 catalytic subunit (amino acids 162 to 410) (H. sapiens, UniProt Q9H5I1 162-410)
# T4 construct: Plasmid from Addgene (gift of Cheryl Arrowsmith); The tag is surmised from the nickel column purification; also called KMT1B; source: Rosetta E. coli, purified (HisTrap FF nickel column, dialysis)
# Test: fluorescence polarisation; enzyme titrated (0-10 uM, monomeric) against a fixed 20-100 nM of N-terminus 5-FAM labeled H3(1-17) peptide, with 100 uM SAH; 50 mM HEPES pH 7.9, 2 mM MgCl2, 0.5 mM DTT, 0.1 mM AEBSF, 0.01% Triton X-100, 10% glycerol; 10 min at 25 °C; one site specific binding fit
# Settings: both partners purified
# T4 sequence (Q9H5I1 162-410): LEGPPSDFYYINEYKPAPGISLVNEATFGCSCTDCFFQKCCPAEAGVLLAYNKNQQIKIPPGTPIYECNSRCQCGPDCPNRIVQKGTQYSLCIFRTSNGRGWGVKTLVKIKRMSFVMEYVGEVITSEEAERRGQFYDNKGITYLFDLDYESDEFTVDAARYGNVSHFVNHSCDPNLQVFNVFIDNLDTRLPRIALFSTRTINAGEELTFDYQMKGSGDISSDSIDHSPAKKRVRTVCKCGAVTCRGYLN
row,Binder,Kd
1,B1,694 ± 98 nM
2,B2,1080 ± 226 nM
3,B3,929 ± 573 nM

# Target: T1, SUV39H1, full length with N-terminal …
# Test: as above
# Settings: both partners purified
row,Binder,Kd
1,B1,750 ± 47 nM
2,B2,499 ± 45 nM
3,B3,479 ± 123 nM

# Target: T2, H. sapiens EHMT1 catalytic subunit …
# Test: as above
# Settings: both partners purified
row,Binder,Kd
1,B1,74 ± 10 nM
2,B2,29 ± 1 nM
3,B3,124 ± 24 nM

# Target: T3, H. sapiens EHMT2 catalytic subunit …
# Test: as above
# Settings: both partners purified
row,Binder,Kd
1,B1,26 ± 1 nM
2,B2,16 ± 0.4 nM
3,B3,40 ± 3 nM
